Publication PMC9751095, “The mitochondrial chaperone TRAP1 regulates F-ATP synthase channel formation” (Cell Death and Differentiation, 2022)

Target: T1, recombinant mature human OSCP (human, UniProt P48047 24-213)
T1 construct: human F-ATP synthase subunit OSCP, mature protein
T1 sequence (looked up): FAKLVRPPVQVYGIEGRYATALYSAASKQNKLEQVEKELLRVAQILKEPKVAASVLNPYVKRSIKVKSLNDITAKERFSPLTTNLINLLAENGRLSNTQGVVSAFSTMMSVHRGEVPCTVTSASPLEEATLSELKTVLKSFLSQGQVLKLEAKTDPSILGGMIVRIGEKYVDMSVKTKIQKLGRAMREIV
Assay: SPR; Biacore T100, CM5 chip, CyPD immobilized by amine coupling (800-1200 RU); OSCP injected at increasing concentrations; Langmuir interaction model
Settings: both partners purified

binding result: binds
B1: purified recombinant human cyclophilin D (enzyme)
chain: not shown
notes: human cyclophilin D, cDNA from a human placenta library; called 'recombinant mature human' for the SPR; also called CyPD; CypD; source: E. coli BL21(DE3)pLysS (plasmid pSUMO-Cyclophilin D), purified
